± gives the standard error. Fewer inactive variants are shown than the library holds.
B1: glmS ribozyme (parent)
chain: AUAAAAGCGCCAGAACUACAGAAAUGUAGUUGACGAGGAGGAGGUUUAUCGAAUUUUCGGCGGAUGCCUCCAAA

Variants of: B1
Test: self-cleavage kobs at 2500 uM GlcN6P; higher = faster cleavage; RNA array
Conditions: with glucosamine-6-phosphate
In short: (§1)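 In situ transcription by E. coli RNA polymerase produced barcoded ribozyme variants on sequenced MiSeq chips, and a hybridised Cy3 probe tracked them at 37 °C. Glucosamine-6-phosphate was flowed in at 40 μM to 10 mM in HEPES/KCl/Mg(OAc)2 buffer. kcat and KM were taken from weighted Michaelis–Menten fits of kobs values from exponential decay fits.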

Row | Variant | self-cleavage kobs at 2500 uM GlcN6P
1 | AUAAAAGCGCCAGAACUACAGAAAUGUAGUUGACGAGGGGGAGGUUUAUCGAAUGUUCGGCGGGUGCCUCCAAA [A39G U55G A64G] | 0.00731 ± 0.0025 s⁻¹
2 | AUAAAAGCGCCAGAACUACAGAAAUGUAGUUGACGAGGAAGAGGUUUAUCGAAUCUUGGGCGGAUGCCUCCAAA [G40A U55C C58G] | < 1e-05 s⁻¹
3 | AUAAAAGCGCCAGAACUACAGAAAUGUAGUUGACGAGGAGUAGGUUUAUCUAAUUUUCGGCCGAUGCCUCCAAA [G41U G51U G62C] | < 1e-05 s⁻¹
4 | AUAAAAGCGCCAGAACUACAGAAAUGUAGUUGACGAGGAGCGGGUUUAUCGAAUAUUCGGCGGAUGCCUCCAAA [G41C A42G U55A] | 9.68e-05 ± 2.6e-05 s⁻¹
5 | AUAAAAGCGCCAGAACUACAGAAAUGUAGUUGACGAGGCGGAUGUUUUUCUAAUUUUCGGCGGAUGCCUCCAAA [A39C G43U A48U G51U] | < 1e-05 s⁻¹
6 | AUAAAAGCGCCAGAACUACAGAAAUGUAGUUGACGAGGAGCUGGUUUAUCGAAUUUUCGCCCGAUGCCUCCAAA [G41C A42U G60C G62C] | < 1e-05 s⁻¹
7 | AUAAAAGCGCCAGAACUACAGAAAUGUAGUUGACGAGGAGCAGGUUUAUCUAAUUUUCGGCGGAUGCCCCCAAA [G41C G51U U69C] | < 1e-05 s⁻¹
8 | AUAAAAGCGCCAGAACUACAGAAAUGUAGUUGACGAGGGGGAGGUUUAUCGAAUUUACGGAGGAUGCCUCCAAA [A39G U57A C61A] | < 1e-05 s⁻¹
9 | AUAAAAGCGCCAGAACUACAGAAAUGUAGUUGACGAGGAAGAGAUUUAUCGAAUUUUCGGCGGAUGCCUCCAAA [G40A G44A] | 4.13e-05 ± 1.2e-05 s⁻¹
10 | AUAAAAGCGCCAGAACUACAGAAAUGUAGUUGACGAGGGUGAGGUUUAUCGAAAUUUCGGCGGAUGCCUCCAAA [A39G G40U U54A] | 0.000126 ± 6.2e-05 s⁻¹
11 | AUAAAAGCGCCAGAACUACAGAAAUGUAGUUGACGAGGAGGGGCUUUAUCGAAUUUUAGGCGGAUGCUUCCAAA [A42G G44C C58A C68U] | < 1e-05 s⁻¹
12 | AUAAAAGCGCCAGAACUACAGAAAUGUAGUUGACGAGGAGUAGGUUUAUCGAAUUUGCGGCGGAUGCCUACAAA [G41U U57G C70A] | 0.000107 ± 1.9e-05 s⁻¹
13 | AUAAAAGCGCCAGAACUACAGAAAUGUAGUUGACGAGGACGAGGUUAAUCGAAUUUUCGGCGGAGGCCUCCAAA [G40C U47A U65G] | 0.000652 ± 0.00017 s⁻¹
14 | AUAAAAGCGCCAGAACUACAGAAAUGUAGUUGACGAGGAGAAGGUUUAUCGAAUUUUCGGCGUAUGCCUUCAAA [G41A G63U C70U] | < 1e-05 s⁻¹
15 | AUAAAAGCGCCAGAACUACAGAAAUGUAGUUGACGAGGGGGAGGUUUAUCGACUUUUCGGCGGAUGCCUACAAA [A39G A53C C70A] | 0.000143 ± 4.2e-05 s⁻¹
16 | AUAAAAGCGCCAGAACUACAGAAAUGUAGUUGACGAGGAAGAGGUUAAACGAAUUUUCGGCGGAUGCCUACAAA [G40A U47A U49A C70A] | < 1e-05 s⁻¹
17 | AUAAAAGCGCCAGAACUACAGAAAUGUAGUUGACGAGGAUAAGGUUUAUCGAAUUUUCGGCGGAUGACUUCAAA [G40U G41A C67A C70U] | 0.000143 ± 3.7e-05 s⁻¹

Row | Variant | self-cleavage kobs at 2500 uM GlcN6P
18 | AUAAAAGCGCCAGAACUACAGAAAUGUAGUUGACGAGGUGGAGGUUUAUCGAAUUUUCGACGGAGGCCUCCAAA [A39U G60A U65G] | < 1e-05 s⁻¹
19 | AUAAAAGCGCCAGAACUACAGAAAUGUAGUUGACGAGGUGGGGGUUUAUCGAAUUUUCGGCGGUUGCCUCCAAA [A39U A42G A64U] | 5.16e-05 ± 2.2e-05 s⁻¹
20 | AUAAAAGCGCCAGAACUACAGAAAUGUAGUUGACGAGGGGGAGUUUUAUCGACUUUUCGGCGGAUGCCUCCAAA [A39G G44U A53C] | 0.000157 ± 4.5e-05 s⁻¹
21 | AUAAAAGCGCCAGAACUACAGAAAUGUAGUUGACGAGGCGGAGGAUUAUGGAAUUUUCGGCGGAUGCCUGCAAA [A39C U45A C50G C70G] | < 1e-05 s⁻¹
22 | AUAAAAGCGCCAGAACUACAGAAAUGUAGUUGACGAGGUGGAGGUUUAUCGAAUUCUCGGCGGAUGGCUCCAAA [A39U U56C C67G] | 3.66e-05 ± 9.2e-06 s⁻¹
23 | AUAAAAGCGCCAGAACUACAGAAAUGUAGUUGACGAGGGGGUGGUUUAUCGAAUUUUCGGCGGAUGUCUCCAAA [A39G A42U C67U] | 9.25e-05 ± 2.6e-05 s⁻¹
24 | AUAAAAGCGCCAGAACUACAGAAAUGUAGUUGACGAGGGGGAGGUUUAUCGAAAUUUCGGCGGAUGCCUCGAAA [A39G U54A C71G] | 0.00114 ± 0.00046 s⁻¹
25 | AUAAAAGCGCCAGAACUACAGAAAUGUAGUUGACGAGGUGGCGGGUUAUCGAAUUUUCGGCGGAUGCCUCCAAA [A39U A42C U45G] | 0.000613 ± 0.00019 s⁻¹
26 | AUAAAAGCGCCAGAACUACAGAAAUGUAGUUGACGAGGACGAGGUUUAUCGAAUUUUCGGCGGAUCCCUCCAAA [G40C G66C] | 0.000833 ± 0.00021 s⁻¹
27 | AUAAAAGCGCCAGAACUACAGAAAUGUAGUUGACGAGGAUGAGGUUUAUCCAAUUUUUGUCGGAUUCCUCCAAA [G40U G51C C58U G60U G66U] | < 1e-05 s⁻¹
28 | AUAAAAGCGCCAGAACUACAGAAAUGUAGUUGACGAGGAUGAGGUUUCUUGAAUUUUCGGCGGAUGCCUCCAAA [G40U A48C C50U] | < 1e-05 s⁻¹
29 | AUAAAAGCGCCAGAACUACAGAAAUGUAGUUGACGAGGGCCAGGUGUAUCGGAUUUUCGGCGGAUGCCUCCAAA [A39G G40C G41C U46G A52G] | < 1e-05 s⁻¹
30 | AUAAAAGCGCCAGAACUACAGAAAUGUAGUUGACGAGGCGGAGGUUUAUCGAAUUUACGGCGGAUGGCUCCAAA [A39C U57A C67G] | < 1e-05 s⁻¹
31 | AUAAAAGCGCCAGAACUACAGAAAUGUAGUUGACGAGGGGGAGGUUUAUCGAAUCUUCGGCGGGUGCCUCCAAA [A39G U55C A64G] | 0.00694 ± 0.0013 s⁻¹
32 | AUAAAAGCGCCAGAACUACAGAAAUGUAGUUGACGAGGAUGAUGUUUAUGGAAUUUUCGGCGGAUGCCUCCAAA [G40U G43U C50G] | < 1e-05 s⁻¹
33 | AUAAAAGCGCCAGAACUACAGAAAUGUAGUUGACGAGGAGCAGUUUUAUCGAAAUUUCGGCGGAUGCAUCAAAA [G41C G44U U54A C68A C71A] | < 1e-05 s⁻¹

Variants of: B1
Test: self-cleavage kobs at 10000 uM GlcN6P; higher = faster cleavage; RNA array
Conditions: with glucosamine-6-phosphate
In short: as §1

Row | Variant | self-cleavage kobs at 10000 uM GlcN6P
34 | AUAAAAGCGCCAGAACUACAGAAAUGUAGUUGACGAGGAGAAGGUUUAUCGAAUUUUCGGCGUAUGCCUUCAAA [G41A G63U C70U] | < 1e-05 s⁻¹
35 | AUAAAAGCGCCAGAACUACAGAAAUGUAGUUGACGAGGGGGAGGUUUAUCGACUUUUCGGCGGAUGCCUACAAA [A39G A53C C70A] | 0.000165 ± 4.3e-05 s⁻¹
36 | AUAAAAGCGCCAGAACUACAGAAAUGUAGUUGACGAGGUGGAGGUUUAUCGAAUUUUCGACGGAGGCCUCCAAA [A39U G60A U65G] | < 1e-05 s⁻¹
37 | AUAAAAGCGCCAGAACUACAGAAAUGUAGUUGACGAGGACGAGGUUUAUCGAAUUUUCGGCGGAUCCCUCCAAA [G40C G66C] | 0.000531 ± 6.3e-05 s⁻¹
